{"source": "patent US7408027", "key": {"[1]": {"target": "taxol-stabilized microtubules made from PC tubulin", "experiment": "microtubule pelleting assay, gel densitometry, fitted"}, "[2]": {"target": "taxol-stabilized microtubules made from PC tubulin", "experiment": "microtubule pelleting assay after brain extract phosphorylation"}, "[3]": {"target": "taxol-stabilized microtubules made from PC tubulin", "experiment": "microtubule pelleting assay after 90 min phosphorylation"}, "[4]": {"target": "taxol-stabilized microtubules made from PC tubulin", "experiment": "microtubule pelleting assay, gel densitometry, fitted; 30 µM polymerized tubulin"}, "[5]": {"target": "taxol-stabilized microtubules made from PC tubulin", "experiment": "microtubule pelleting assay after 35 kDal kinase"}, "[6]": {"target": "taxol-stabilized microtubules made from PC tubulin", "experiment": "microtubule pelleting assay after 35 kDal kinase, fitted"}, "[7]": {"target": "taxol-stabilized microtubules made from PC tubulin", "experiment": "co-sedimentation of tau with microtubules in taxol, fitted binding curve (control curve)"}, "[8]": {"target": "taxol-stabilized microtubules made from PC tubulin", "experiment": "co-sedimentation of tau with taxol-stabilized microtubules (30 µM polymerized tubulin), SDS gel densitometry, fitted binding curve"}, "[9]": {"target": "taxol-stabilized microtubules made from PC tubulin", "experiment": "microtubule pelleting assay, microtubules from 10 µM tubulin with 20 µM taxol"}, "[10]": {"target": "taxol-stabilized microtubules made from PC tubulin", "experiment": "co-sedimentation of tau with microtubules made from 10 µM tubulin in 20 µM taxol, fitted binding curve"}, "[11]": {"target": "taxol-stabilized microtubules made from PC tubulin", "experiment": "co-sedimentation of tau with taxol-stabilized microtubules, SDS gel densitometry, fitted binding curve"}, "[12]": {"target": "taxol-stabilized microtubules made from PC tubulin", "experiment": "microtubule pelleting assay after MAP kinase"}}}
{"substance": "AP18 phosphorylated with the brain extract activity (from UniProt P10636 1-352)", "values": [{"measurement": "Kd", "setting": "[1]", "result": 6.1, "unit": "µM"}, {"measurement": "stoichiometry n (tau/tubulin dimer) (tau/tubulin dimer)", "setting": "[1]", "result": 0.48}, {"measurement": "difference in stoichiometry upon phosphorylation (Dn) (tau/tubulin dimer)", "setting": "[2]", "result": 0.01}]}
{"substance": "S404-A mutant of htau34 after 90 min of phosphorylation by the brain extract kinase activity (from UniProt P10636 1-412)", "values": [{"measurement": "fold decrease of stoichiometry against the unphosphorylated mutant", "setting": "[3]", "result": 2, "unit": "fold"}]}
{"substance": "htau23 mutant Ser202-Ala phosphorylated with brain extract (from UniProt P10636 1-352)", "values": [{"measurement": "Kd", "setting": "[4]", "result": 9.4, "unit": "µM"}, {"measurement": "stoichiometry n (tau/tubulin dimer) (tau/tubulin dimer)", "setting": "[4]", "result": 0.31}]}
{"substance": "htau23 mutant Ser262-Ala phosphorylated with brain extract (from UniProt P10636 1-352)", "values": [{"measurement": "difference in stoichiometry upon phosphorylation (Dn) (tau/tubulin dimer)", "setting": "[2]", "result": 0.04}]}
{"substance": "htau23 phosphorylated by the 35 kDal kinase (from UniProt P10636 2-352)", "values": [{"measurement": "reduction in stoichiometry upon phosphorylation (Dn) (tau/tubulin dimer)", "setting": "[5]", "result": 0.28}, {"measurement": "Kd", "setting": "[6]", "result": 8.8, "unit": "µM"}, {"measurement": "stoichiometry n (tau/tubulin dimer) (tau/tubulin dimer)", "setting": "[6]", "result": 0.21}]}
{"substance": "htau23 phosphorylated by the brain extract kinase activity (stage 2-3, up to 24 h) (from UniProt P10636 2-352)", "values": [{"measurement": "difference in stoichiometry upon phosphorylation (Dn) (tau/tubulin dimer)", "setting": "[2]", "result": 0.33}, {"measurement": "Kd", "setting": "[4]", "result": 4.9, "unit": "µM"}, {"measurement": "stoichiometry n (tau/tubulin dimer) (tau/tubulin dimer)", "setting": "[4]", "result": 0.16}, {"measurement": "Kd", "setting": "[7]", "result": 4.9, "unit": "µM"}, {"measurement": "n", "setting": "[7]", "result": 0.16}, {"measurement": "Kd", "setting": "[8]", "result": 4.9, "unit": "µM"}, {"measurement": "n", "setting": "[8]", "result": 0.16}]}
{"substance": "htau23 phosphorylated with GSK3 (from UniProt P10636 2-352)", "values": [{"measurement": "stoichiometry (tau per tubulin dimer) (per tubulin dimer)", "setting": "[9]", "result": 0.6}, {"measurement": "Kd", "setting": "[10]", "result": 2.4, "unit": "µM"}, {"measurement": "n", "setting": "[10]", "result": 0.6}]}
{"substance": "htau23/A404 (Ser404 replaced by Ala), unphosphorylated (from UniProt P10636 1-758)", "values": [{"measurement": "Kd", "setting": "[11]", "result": 4.3, "unit": "µM"}, {"measurement": "n", "setting": "[11]", "result": 0.54}]}
{"substance": "htau23/A404 phosphorylated by the brain extract kinase activity (from UniProt P10636 1-352)", "values": [{"measurement": "Dn as percent of the unmutated control", "setting": "[2]", "result": 52, "unit": "%"}, {"measurement": "difference in stoichiometry upon phosphorylation (Dn) (tau/tubulin dimer)", "setting": "[2]", "result": 0.17}, {"measurement": "Kd", "setting": "[11]", "result": 9.3, "unit": "µM"}, {"measurement": "n", "setting": "[11]", "result": 0.32}]}
{"substance": "htau34 phosphorylated by the brain extract kinase activity (stage 2-3, up to 24 h) (from UniProt P10636 2-412)", "values": [{"measurement": "Kd", "setting": "[8]", "result": 10.4, "unit": "µM"}, {"measurement": "n", "setting": "[8]", "result": 0.16}]}
{"substance": "htau34 phosphorylated by the brain extract kinase activity for 90 min (stage 1) (from UniProt P10636 2-412)", "values": [{"measurement": "fold decrease of stoichiometry against unphosphorylated htau34", "setting": "[3]", "result": 3, "unit": "fold"}]}
{"substance": "htau40 phosphorylated by the brain extract kinase activity (from UniProt P10636 2-758)", "values": [{"measurement": "difference in stoichiometry upon phosphorylation (Dn) (tau/tubulin dimer)", "setting": "[2]", "result": 0.31}, {"measurement": "Kd", "setting": "[11]", "result": 9.6, "unit": "µM"}, {"measurement": "n", "setting": "[11]", "result": 0.15}]}
{"substance": "htau40 phosphorylated with MAP kinase (from UniProt P10636 2-758)", "values": [{"measurement": "difference in stoichiometry upon phosphorylation (Dn) (tau/tubulin dimer)", "setting": "[12]", "result": 0.09}, {"measurement": "Kd", "setting": "[11]", "result": 1.9, "unit": "µM"}, {"measurement": "n", "setting": "[11]", "result": 0.37}]}
{"substance": "human tau isoform htau34, bacterially expressed, unphosphorylated (from UniProt P10636 2-412)", "values": [{"measurement": "Kd", "setting": "[1]", "result": "1 to 2", "unit": "µM"}, {"measurement": "Kd", "setting": "[8]", "result": 1.4, "unit": "µM"}, {"measurement": "n", "setting": "[8]", "result": 0.43}]}
{"substance": "human tau isoform htau40, bacterially expressed, unphosphorylated (from UniProt P10636 2-758)", "values": [{"measurement": "Kd", "setting": "[11]", "result": 1.1, "unit": "µM"}, {"measurement": "n", "setting": "[11]", "result": 0.46}]}
